Source: PMC8244302, “Shotgun EM of mycobacterial protein complexes during stationary phase stress” (Current Research in Structural Biology, 2020)

Columns and labels:
[1] = biological target: T1, Msm encapsulin (MSMEG_5830) (M. smegmatis (endogenous in Msm groELΔC), UniProt A0R4H0 1-265); test: negative stain EM single-particle reconstruction; partially fractionated late stationary phase Msm lysate (anion exchange or sucrose cushion, >100 kDa cut-off), 2% uranyl acetate, Relion 3.1; symmetry imposed from 2D classes; C3 symmetry for encapsulin with cargo; details: partners not purified
T1 construct: encapsulin of Mycobacterium smegmatis, locus MSMEG_5830; Reconstructed with icosahedral symmetry; also called complex 001; encapsulin nanocompartment; source: endogenous, M. smegmatis groELΔC late stationary phase lysate, partially fractionated (anion exchange, >100 kDa cut-off; gel filtration); also solubilised membrane fraction
T1 sequence (looked up): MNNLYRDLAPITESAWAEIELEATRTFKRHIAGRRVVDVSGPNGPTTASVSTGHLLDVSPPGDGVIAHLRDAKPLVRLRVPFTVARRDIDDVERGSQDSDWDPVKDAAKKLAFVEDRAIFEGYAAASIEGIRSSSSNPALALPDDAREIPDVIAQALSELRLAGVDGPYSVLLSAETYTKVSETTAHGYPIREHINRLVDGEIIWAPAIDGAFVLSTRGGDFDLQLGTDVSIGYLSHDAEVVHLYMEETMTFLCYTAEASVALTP

[2] = biological target: the molecule itself; test: as above

B1: Msm dye-decolourising type peroxidase (MSMEG_5829) (enzyme, M. smegmatis (endogenous in Msm groELΔC), UniProt A0R4G9 1-343, looked up)
chain: MPAPQPQPVLAPLTPAAVFLVATIDEGQEATVYDALPDISGLVRAIGFRDPAKRLSAITSIGSDAWDRLFSGPRPAELHPFREIDGGRHHAPATPGDLLFHLRAESMDVCFELATKLVEAMSGAITIVDETHGFRFFDNRDLMGFVDGTENPDGNLAVVATQIGDEDPDFAGGCYVHVQKYLHDMASWNSLSVEEQERVIGRTKLDDIELDDDVKPANSHVALNVIEDEDGNELKIIRHNMPFGEIGKGEFGTYYIGYSRTPSVTERMLDNMFIGDPPGNTDRILDFSTAITGGLFFTPTVDFLDDPPPLPSEDDRAEPASAPSADPVHTDGSLGIGSLKGTR
notes: dye-decolourising type peroxidase of Mycobacterium smegmatis, locus MSMEG_5829; Interpreted as a D3 hexamer from the cargo density in the C3 map; also called DyP; DyP type peroxidase; source: endogenous, M. smegmatis groELΔC late stationary phase lysate, partially fractionated, enclosed in encapsulin; also solubilised membrane fraction
With B1 the “stoichiometry N” value [1] was 10 encapsulin subunits per DyP subunit and the “stoichiometry N” value [2] was 6 subunits.
